Columns and labels:
[1] = tested on: Met expression in neutrophils; test: Q-PCR / Western blot of Met expression in mouse neutrophils; format: cell-based; conditions: naïve mouse neutrophils
Procedure: Western blot: 2×10^6 bone marrow neutrophils from WT mice were stimulated with TCM, CCM, 100 ng/ml of murine TNF-α (or mock medium 0% FBS or 10% FBS as control) for 20 hours at 37° C. For the co-culture with HUVEC, a monolayer of HUVEC was stimulated for 4 hours with 5 ng/ml IL-1 at 37° C., and washed before neutrophil seeding. After 20 hours of stimulation, neutrophils were collected using Cell Dissociation Buffer, Enzyme Free, PBS-Based (Gibco). Cells were washed in PBS, lysed in 15 μl of a protease inhibitor mixture and incubated for 15 minutes on ice. The stock solution was obtained by dissolving one tablet of Complete Mini protease inhibitor mixture (CI, Roche) in 5 ml of PBS with 2 mM diisopropyl fluorophosphate (DFP; Acros Organics, Morris Plains, N.J.). After addition of an equal amount of 2×SDS sample buffer supplemented with 4% 2-mercaptoethanol, the lysates were boiled for 15 minutes and kept at -80° C. until use. 30×10^6 neutrophils purified from healthy volunteer blood and stimulated with A549-CM, 100 ng/ml of human TNF-α, 50 ng/ml LPS (or mock medium 10% FBS as control) for 20 hours. Cells were incubated with DFP 2.7 mM for 15' at 4° C., collected and washed in PBS, DFP 2.7 mM, CI 1X, and lysed in hot […] buffer (25% SDS 10%, 25% Tris-HCl pH 6.8) at 96° C. for 10'. Cell lysates were sonicated, cleared and quantified. 6× loading buffer was added before loading on the gel. The following antibodies were used: mouse anti-mouse Met (clone 3D4; Invitrogen), mouse anti-mouse β-actin (Santa Cruz), rabbit anti-human Met (clone D1C2-XP; Cell Signaling), HRP-conjugated anti-beta-tubulin (Abcam). Signal was visualized by Enhanced Chemiluminescent Reagents (ECL, Invitrogen) or West Femto by Thermo Scientific according to the manufacturer's instructions. Quantitative RT-PCR: for mRNA analysis, 1×10^5 or 3×10^5 mouse or human neutrophils, respectively, were incubated in normoxic (21% oxygen) or hypoxic condition (1% oxygen) or stimulated with TCM (plus 50 μg/ml Enbrel or human IgG when indicated), CCM, A549-CM, 100 ng/ml of murine or human TNF-α, 50 ng/ml LPS, or mock medium in 96-multiwell for 4 hours at 37° C. 2×10^5 HUVEC were seeded in 24-multiwell coated with 0.1% gelatin and stimulated with 5 ng/ml IL-1 in DMEM 10% FBS for 4 hours at 37° C. Cells were washed in PBS, collected in RLT buffer (QIAGEN®) and kept at -80° C. RNA was extracted with an RNase Micro kit (QIAGEN®) according to manufacturer's instructions. Reverse transcription to cDNA was performed with the SuperScript III Reverse Transcriptase (Invitrogen) according to manufacturer's protocol. […]

LLC cancer cells = test: Cytotoxicity assay: LLC cancer cell killing by neutrophils; format: cell-based, mouse
Procedure: Cytotoxicity assay: LLC-shMet were transduced with a luciferase-expressing lentivirus (EXhLUC-Lvl 14 from GeneCopoeia); 104 LLC were seeded in DMEM 10% FBS in 96-multiwell. After 4 h, 0.2×10^6 neutrophils purified from the blood of LLC-tumor bearing mice or sorted from LLC-tumors were co-cultured with the LLC in DMEM 2% FBS for 4 hours at 37° C., with or without 100 ng/ml HGF or 1 mM L-NMMA (SIGMA). After washing, adherent cells were lysate in 0.2% Tryton 1 mM DTT.

[2] = target: MET (c-Met, HGF receptor) on mouse neutrophils (mouse) (UniProt P16056); test: cell-based or functional assay
Ly6G+ cells = test: Air pouch assay: neutrophil exudation into subcutaneous air pouches; format: in vivo; conditions: 200 ng/mouse, 4 hours; for recruitment of Ly6G+ cells into air pouch: WT→WT mice
Procedure: Air Pouch Assay: to create subcutaneous air pouches, bone marrow transplanted WT and KO mice were injected with 3 ml of sterile air by dorsal subcutaneous injection with a butterfly 23G needle on day 0 and on day 3. On day 6, 200 ng/mouse of CXCL1 or murine HGF in 0.5 ml PBS-Heparin or PBS-Heparin as control, were injected in the dorsal camera created with the previous injection. After 4 hours, inflammatory cells were harvested by washing the pouch with 8 ml of PBS. Cells were stained with Ly6G-APC, washed and resuspended in PBS-BSA 0.1% with unlabeled counting beads and quantified with FACS Canto II (BD Bioscience).

neutrophils [3] = test: Transmigration and migration assay of neutrophils; format: cell-based, mouse
Procedure: Transmigration and Migration Assay: For the transmigration assay, 2×10^5 HUVEC were seeded on 3 μm polycarbonate membrane (Transwell; Costar) previously coated with 0.1% gelatin in M199 20% FBS. After 12 h, HUVEC were stimulated for 4 hours at 37° C. in DMEM 10% FBS with 5 ng/ml IL-1 and then washed. 5×105 WBC were seeded on top of the endothelial monolayer, while mock medium (+/− decoy Met), TCM (+/− decoy Met) or 50 ng/ml murine HGF was added in the bottom. After 2 hours at 37° C., transmigrated cells were collected from the lower chambers and from the bottom part of the filter with cold PBS 0.5% EDTA. Cells were stained and Ly6G+ cells quantified as above. In the migration assays WBC were seeded directly on top of 3 μm polycarbonate porous membranes.

neutrophils [4] = test: Nitric oxide measurement by FACS (DAF-FM) in neutrophils; format: cell-based, mouse; conditions: HGF 100 ng/ml
Procedure: Nitric oxide measurement by FACS: neutrophils isolated from the blood of WT or KO LLC tumor bearing mice were co-cultured for 4 hours with LLC shMet, washed, and resuspended in PBSHepes 20 mM, incubated for 10′ with 5 μM DAF-FM diacetate (Molecular probes) in the absence or presence of HGF (100 ng/ml) at 37° C., washed and analyzed by FACS.

β2-integrin = test: Soluble ICAM-1 binding assay and co-immunoprecipitation of active β2-integrin; format: cell-based
neutrophils [5] = test: Adhesion assay: neutrophil adhesion to HUVEC; format: cell-based, mouse
Procedure: Adhesion Assay: 4×10^4 HUVEC were seeded in M199 20% FBS in 96-multiwell previously coated with 0.1% gelatin. After 12 h, HUVEC were stimulated with 5 ng/ml IL-1 in DMEM 10% FBS at 37° C. After 4 hours the endothelial monolayer was thoroughly washed and 2.5×105 WBC were seeded on top, with or without murine HGF (50 ng/ml). After 15′ non-adherent cells were washed out whereas adherent cells were detached by using Cell Dissociation Buffer, Enzyme Free, PBS-Based (Gibco). Cells were stained with Ly6G-APC, washed and resuspended in PBS-BSA 0.1% with unlabeled counting beads (BD Bioscience) and quantified with FACS Canto II (BD Bioscience).

## TNF-a
[1]
  upregulation of MET at RNA and protein levels: able to upregulate MET

## CNC(=N)NCCC[C@H](N)C(=O)O [L-NMMA, reference compound]
LLC cancer cells; HGF 100 ng/ml plus 1 mM L-NMMA
  HGF-induced cytotoxicity of neutrophils: decreased HGF-induced cytotoxicity to the level of Met KO neutrophils
LLC cancer cells; neutrophils sorted from LLC tumors, 1 mM L-NMMA
  cytotoxicity of intratumoral WT neutrophils against cancer cells: decreased the cytotoxicity of WT neutrophils to the levels of KO neutrophils

## Hepatocyte Growth Factor (HGF), murine (from UniProt Q08048 33-728) (ligand)
[2]
  adhesion of neutrophils to an activated endothelium (HUVEC pre-stimulated with IL-1), FACS count: 48%

B1: CXCL1: well-known neutrophil chemoattractant, positive control of neutrophil migration (protein, UniProt P12850 25-96, looked up)
Growth-regulated alpha protein: APIANELRCQCLQTMAGIHLKNIQSLKVLPSGPHCTQTEVIATLKNGREACLDPEAPLVQKIVQKMLKGVPK
Ly6G+ cells
  recruitment of neutrophils into air pouch in KO→WT mice: did not change
  recruitment of Ly6G+ cells into air pouch: equally good in recruiting Ly6G+ cells

B2: decoy MET: soluble HGF-trap consisting of the extracellular portion of MET (protein, UniProt P08581 25-932, looked up)
extracellular domain: ECKEALAKSEMNVNMKYQLPNFTAETPIQNVILHEHHIFLGATNYIYVLNEEDLQKVAEYKTGPVLEHPDCFPCQDCSSKANLSGGVWKDNINMALVVDTYYDDQLISCGSVNRGTCQRHVFPHNHTADIQSEVHCIFSPQIEEPSQCPDCVVSALGAKVLSSVKDRFINFFVGNTINSSYFPDHPLHSISVRRLKETKDGFMFLTDQSYIDVLPEFRDSYPIKYVHAFESNNFIYFLTVQRETLDAQTFHTRIIRFCSINSGLHSYMEMPLECILTEKRKKRSTKKEVFNILQAAYVSKPGAQLARQIGASLNDDILFGVFAQSKPDSAEPMDRSAMCAFPIKYVNDFFNKIVNKNNVRCLQHFYGPNHEHCFNRTLLRNSSGCEARRDEYRTEFTTALQRVDLFMGQFSEVLLTSISTFIKGDLTIANLGTSEGRFMQVVVSRSGPSTPHVNFLLDSHPVSPEVIVEHTLNQNGYTLVITGKKITKIPLNGLGCRHFQSCSQCLSAPPFVQCGWCHDKCVRSEECLSGTWTQQICLPAIYKVFPNSAPLEGGTRLTICGWDFGFRRNNKFDLKKTRVLLGNESCTLTLSESTMNTLKCTVGPAMNKHFNMSIIISNGHGTTQYSTFSYVDPVITSISPKYGPMAGGTLLTLTGNYLNSGNSRHISIGGKTCTLKSVSNSILECYTPAQTISTEFAVKLKIDLANRETSIFSYREDPIVYEIHPTKSFISGGSTITGVGKNLNSVSVPRMVINVHEAGRNFTVACQHRSNSEIICCTTPSLQQLNLQLPLKTKAFFMLDGILSKYFDLIYVHNPVFKPFEKPVMISMGNENVLEIKGNDIDPEAVKGEVLKVGNKSCENIHLHSEAVLCTVPNDLLKLNSELNIEWKQAISSTVLGKVIVQPDQNFT
modifications: extracellular domain
Neutrophils [3]; Met KO neutrophils, TCM, decoy Met
  TCM-induced transendothelial migration of Met KO neutrophils: did not further impair the migration of Met KO neutrophils
Neutrophils [3]; WT neutrophils, TCM, decoy Met 0.5 ng/μl
  TCM-promoted transendothelial migration of WT neutrophils: abated this effect

B3: HGF: Hepatocyte Growth Factor, the ligand of the MET tyrosine kinase receptor (protein)
chain: QKKRRNTLHEFKKSAKTTLTKEDPLLKIKTKKVNSADECANRCIRNRGFTFTCKAFVFDKSRKRCYWYPFNSMSSGVKKGFGHEFDLYENKDYIRNCIIGKGGSYKGTVSITKSGIKCQPWNSMIPHEHSFLPSSYRGKDLQENYCRNPRGEEGGPWCFTSNPEVRYEVCDIPQCSEVECMTCNGESYRGPMDHTESGKTCQRWDQQTPHRHKFLPERYPDKGFDDNYCRNPDGKPRPWCYTLDPDTPWEYCAIKTCAHSAVNETDVPMETTECIQGQGEGYRGTSNTIWNGIPCQRWDSQYPHKHDITPENFKCKDLRENYCRNPDGAESPWCFTTDPNIRVGYCSQIPKCDVSSGQDCYRGNGKNYMGNLSKTRSGLTCSMWDKNMEDLHRHIFWEPDASKLNKNYCRNPDDDAHGPWCYTGNPLIPWDYCPISRCEGDTTPTIVNLDHPVISCAKTKQLRVVNGIPTQTTVGWMVSLKYRNKHICGGSLIKESWVLTARQCFPARNKDLKDYEAWLGIHDVHERGEEKRKQILNISQLVYGPEGSDLVLLKLARPAILDNFVSTIDLPSYGCTIPEKTTCSIYGWGYTGLINADGLLRVAHLYIMGNEKCSQHHQGKVTLNESELCAGAEKIGSGPCEGDYGGPLICEQHKMRMVLGVIVPGRGCAIPNRPGIFVRVAYYAKWIHKVILTYKL
Neutrophils [3]; Met KO neutrophils, inflamed-like endothelium
  transendothelial migration of Met KO neutrophils: completely lost this response to HGF
Neutrophils [3]; WT neutrophils, inflamed-like endothelium, HGF 50 ng/ml
  transendothelial migration (chemotaxis) of WT neutrophils: promoted their chemotaxis through an inflamed-like endothelium
Neutrophils [3]; no activated endothelium
  migration of neutrophils through a naked porous membrane or a non-activated endothelium: did not influence the migration of neutrophils
LLC cancer cells; Met KO circulating neutrophils with LLC, HGF 100 ng/ml
  cytotoxicity of KO neutrophils: not
LLC cancer cells; WT circulating neutrophils with LLC, HGF 100 ng/ml
  cytotoxicity of WT neutrophils: augmented
Neutrophils [4]; Met KO circulating neutrophils with LLC
  NO release of KO neutrophils: not
Neutrophils [4]; WT circulating neutrophils with LLC
  NO release of WT neutrophils: augmented
[1]
  upregulation of MET at RNA and protein levels: not
Ly6G+ cells
  recruitment of neutrophils into air pouch in KO→WT mice: completely abolished
  recruitment of Ly6G+ cells into air pouch: equally good in recruiting Ly6G+ cells
β2-integrin; soluble ICAM-1 binding assay
  percentage of granulocytes bound to ICAM-1: increases the percentage of granulocytes bound to ICAM-1
β2-integrin; upon HGF stimulation
  active β2-integrin (immunoprecipitation): more active Iβ2-integrin
Neutrophils [5]; Met KO neutrophils, HUVEC (IL-1)
  adhesion of Met KO neutrophils to an activated endothelium: did not modify the behavior of KO cells
Neutrophils [5]; WT neutrophils, HUVEC (IL-1), HGF 50 ng/ml
  increase of adhesion of WT neutrophils to an activated endothelium: 48%
Neutrophils [5]; nonactivated ECs
  neutrophil adhesion to nonactivated ECs: not affected

Reference: patent US20150258194A1, “MODULATING TRANSENDOTHELIAL MIGRATION AND RECRUITMENT OF GRANULOCYTES BY MODULATING C-MET PATHWAY” (VIB VZW, priority 2012, published 2015)
